Reference: paper PMC11246429 (2024)
Blank lines part the entries; values can stand above or below the molecule they belong to.

How the values were obtained:
AP180 399-598 (rat) = experiment: ITC; AP2β2 mutants titrated into 0.04 mM AP180 399-598 in the cell; 25 °C; 150 mM NaCl, 50 mM Na-phosphate, 0.2 mM TCEP, pH 7.5; 1:1 binding model
[1] = biological target: AP180 IDR (residues 281–898 of AP180) (rat); experiment: NMR titration; unlabeled CHCTD (in 50 mM Na-phosphate pH 7.5, 150 mM NaCl, 2 mM DTT) titrated into 15N labeled AP180 in NMR buffer (pH 6); 1H-15N HSQC and 15N R1ρ; residue-wise KD from a linear fit of R1ρ against CHCTD concentration under the assumption of weak binding; 25 °C
[2] = biological target: AP180 segment 471–700 (rat); experiment: NMR titration; unlabeled AP2α titrated into 15N labeled AP180 (50 μM AP180 471–700, 90 μM AP180IDR); 1H-15N HSQC and 15N R1ρ; residue-wise KD from R1ρ against AP2α concentration; NMR buffer 50 mM Na-phosphate pH 6, 150 mM NaCl, 2 mM DTT, 25 °C
[3] = biological target: T1, AP2 β2-appendage domain with linker (residues 617–951) (bovine, UniProt Q08DS7 617-951); experiment: ITC
T1 chain: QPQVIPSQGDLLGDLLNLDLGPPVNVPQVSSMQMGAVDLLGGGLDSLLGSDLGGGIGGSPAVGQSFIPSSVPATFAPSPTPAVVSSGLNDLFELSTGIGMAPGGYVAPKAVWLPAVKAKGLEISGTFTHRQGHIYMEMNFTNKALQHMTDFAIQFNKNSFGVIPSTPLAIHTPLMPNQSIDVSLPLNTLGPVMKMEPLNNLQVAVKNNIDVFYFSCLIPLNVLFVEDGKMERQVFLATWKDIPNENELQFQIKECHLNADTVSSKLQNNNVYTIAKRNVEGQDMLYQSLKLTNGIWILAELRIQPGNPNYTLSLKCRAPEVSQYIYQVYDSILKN

[4] = biological target: AP180 IDR (residues 281–898 of AP180) (rat); experiment: ITC; 0.03 mM AP180 construct in the cell (0.04 mM AP180 399–598 for the AP2β2 mutants), 2 μl steps of 0.3 mM AP2β2; 25 °C; 150 mM NaCl, 50 mM Na-phosphate, 0.2 mM TCEP, pH 7.5; 1:1 binding model
[5] = biological target: AP180 segment 399–598 (rat); experiment: as above
[6] = biological target: AP180 430–500 (extended interaction motif, EIM) (rat); experiment: as above
[7] = biological target: AP180 segment 399–598 (rat); experiment: NMR CPMG relaxation dispersion; 100 μM 15N AP180 399–598 with 10 μM unlabeled AP2β2; 600 and 850 MHz; 22 residues fitted together with a two-state exchange model (ChemEx); KD calculated from pB under the assumption of 1:1 stoichiometry

Chain of AP180 segment 471–700 (rat) (Q05140 whole entry, the tested form may be a part): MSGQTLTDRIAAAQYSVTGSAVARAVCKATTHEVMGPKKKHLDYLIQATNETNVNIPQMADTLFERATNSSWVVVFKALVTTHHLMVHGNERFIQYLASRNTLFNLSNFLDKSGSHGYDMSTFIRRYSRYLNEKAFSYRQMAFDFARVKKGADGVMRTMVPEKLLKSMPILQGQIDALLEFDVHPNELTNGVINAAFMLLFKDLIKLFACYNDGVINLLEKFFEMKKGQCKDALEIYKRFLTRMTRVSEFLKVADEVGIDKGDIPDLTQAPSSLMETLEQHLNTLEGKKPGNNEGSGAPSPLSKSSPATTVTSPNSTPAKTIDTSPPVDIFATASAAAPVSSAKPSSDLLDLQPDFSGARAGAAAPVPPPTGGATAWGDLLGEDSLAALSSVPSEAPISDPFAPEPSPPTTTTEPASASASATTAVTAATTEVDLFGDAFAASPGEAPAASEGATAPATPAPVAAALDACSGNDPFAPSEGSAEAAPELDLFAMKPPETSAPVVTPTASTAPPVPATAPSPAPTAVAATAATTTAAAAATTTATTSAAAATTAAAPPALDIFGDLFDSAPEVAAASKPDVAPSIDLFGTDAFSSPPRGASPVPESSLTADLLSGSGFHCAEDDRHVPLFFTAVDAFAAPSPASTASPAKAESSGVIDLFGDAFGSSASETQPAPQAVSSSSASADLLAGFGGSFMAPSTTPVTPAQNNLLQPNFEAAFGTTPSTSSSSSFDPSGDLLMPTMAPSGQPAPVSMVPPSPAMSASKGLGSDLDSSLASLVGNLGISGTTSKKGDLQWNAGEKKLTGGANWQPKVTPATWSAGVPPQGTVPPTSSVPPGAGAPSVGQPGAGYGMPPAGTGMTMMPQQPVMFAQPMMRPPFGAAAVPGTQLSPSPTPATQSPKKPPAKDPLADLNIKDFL

Molecule: AP2β2 Y888A (domain or fragment)
- Kd (AP180 399-598 (rat)): 7.3 µM

Molecule: AP2β2 K842E (domain or fragment)
- Kd (AP180 399-598 (rat)): 7.8 µM

Molecule: AP2 α-appendage domain (residues 701–938) (from UniProt P17427 701-938) (domain or fragment)
- residue-wise KD (first residue of Fig. 3D) [2]: 144 µM
- residue-wise KD (second residue of Fig. 3D) [2]: 380 µM
- residue-wise KD (third residue of Fig. 3D) [2]: 414 µM

B2: AP2 β2-appendage domain with linker (residues 617–951) (domain or fragment)
chain: QPQVIPSQGDLLGDLLNLDLGPPVNVPQVSSMQMGAVDLLGGGLDSLLGSDLGGGIGGSPAVGQSFIPSSVPATFAPSPTPAVVSSGLNDLFELSTGIGMAPGGYVAPKAVWLPAVKAKGLEISGTFTHRQGHIYMEMNFTNKALQHMTDFAIQFNKNSFGVIPSTPLAIHTPLMPNQSIDVSLPLNTLGPVMKMEPLNNLQVAVKNNIDVFYFSCLIPLNVLFVEDGKMERQVFLATWKDIPNENELQFQIKECHLNADTVSSKLQNNNVYTIAKRNVEGQDMLYQSLKLTNGIWILAELRIQPGNPNYTLSLKCRAPEVSQYIYQVYDSILKN
- Kd [4]: 6.97 µM
- Kd [5]: 5.1 µM
- Kd [6]: 2.5 µM
- Kd [7]: 10 µM
- exchange rate kex (kon [AP2β2] + koff) [7]: 662 s⁻¹
- percentage of bound population of AP180 (10% AP2β2) [7]: 8.9%

The remaining lines, values ahead:

- Kd (AP180 399-598 (rat)): 4.9 µM
Molecule: AP2β2 Y815A (domain or fragment)

- residue-wise KD (first residue of Fig. 2E) [1]: 177 µM
- residue-wise KD (fourth residue of Fig. 2E) [1]: 700 µM
- residue-wise KD (second residue of Fig. 2E) [1]: 294 µM
- residue-wise KD (third residue of Fig. 2E) [1]: 549 µM
Molecule: clathrin heavy chain terminal domain (residues 1–363) (from UniProt P49951 1-363) (domain or fragment)

- Kd [3]: 4.2 µM
B1: AP180 IDR (residues 281–898 of AP180) (domain or fragment)
chain: GHMHLNTLEGKKPGNNEGSGAPSPLSKSSPATTVTSPNSTPAKTIDTSPPVDIFATASAAAPVSSAKPSSDLLDLQPDFSGAAAGAAAPVPPPTGGATAWGDLLGEDSLAALSSVPSEAPISDPFAPEPSPPTTTTEPASASASATTAVTAATTEVDLFGDAFAASPGEAPAASEGATAPATPAPVAAALDACSGNDPFAPSEGSAEAAPELDLFAMKPPETSAPVVTPTASTAPPVPATAPSPAPTAVAATAAATTTTTAAAATTTATTSAAAAATAAAPPALDIFGDLFDSAPEVAAASKPDVAPSIDLFGTDAFSSPPRGASPVPESSLTADLLSVDAFAAPSPASTASPAKAESSGVIDLFGDAFGSSASETQPAPQAVSSSSASADLLAGFGGSFMAPSTTPVTPAQNNLLQPNFEAAFGTTPSTSSSSSFDPSGDLLMPTMAPSGQPAPVSMVPPSPAMSASKGLGSDLDSSLASLVGNLGISGTTSKKGDLQWNAGEKKLTGGANWQPKVTPATWSAGVPPQGTVPPTSSVPPGAGAPSVGQPGAGYGMPPAGTGMTMMPQQPVMFAQPMMRPPFGAAAVPGTQLSPSPTPATQSPKKPPAKDPLADLNIKDFLLEHHHHHH
